# Changes are numbered by the printed parent chain. Numbers in names are those of the source.
# B1: C2691 (antibody, V domains shown)
# VH: QVQLQQSGPELVRPGESVKISCKGSGYTFTDYAMHWVKQSHAKSLEWIGIISFYYDNTKYNQNFKGKATMTVDKSSSTAYMELARLTSEDSAIYFCASQGIHYYGSFAYWGQGTLVTVSA
# VL: DIVMTQSQKFMSTSVGDRVSVSCKASQNVGTNLGWYQQKPGQSPKALIYSASYRYSGVPDRFTGSGSGTDFTLTISNVQSEDLAEYFCQQYNSSPLTFGAGTKLELK
# notes: also called lineage HV1-67/KV6-15 antibody C2691
# B2: Y111A (antibody, V domains shown)
# VH: B1 VH with Y103A
# VL: B1 VL
# notes: member of the group m29; also called C2691 Y111A; C2691 CDR3 alanine scanning mutant
# B3: H110A (antibody, V domains shown)
# VH: B1 VH with H102A
# VL: B1 VL
# notes: member of the group m29; also called C2691 H110A; C2691 CDR3 alanine scanning mutant
# B4: Q107A (antibody, V domains shown)
# VH: B1 VH with Q99A
# VL: B1 VL
# notes: member of the group m29; also called C2691 Q107A; C2691 CDR3 alanine scanning mutant
# B5: Y112A (antibody, V domains shown)
# VH: B1 VH with Y104A
# VL: B1 VL
# notes: member of the group m29; also called C2691 Y112A; C2691 CDR3 alanine scanning mutant
# B6: I109A (antibody, V domains shown)
# VH: B1 VH with I101A
# VL: B1 VL
# notes: member of the group m29; also called C2691 I109A; C2691 CDR3 alanine scanning mutant
# Target: T1, CoV2_5P_FPKO1 (SARS-CoV-2, UniProt P0DTC2 14-1208)
# T1 construct: also called 5P KO1
# Experiment: ELISA
row,Binder,binding result
1,B1,binds

# Target: T2, CoV2_5P_NonSFP (SARS-CoV-2, UniProt P0DTC2 14-1208)
# T2 construct: also called scrambled fusion peptide spike
# Experiment: ELISA, AUC, on 5P spikes with swapped fusion peptides
row,Binder,binding result
1,B2,no binding
2,B3,no binding
3,B4,no binding
4,B5,no binding
5,B6,no binding

# Target: T3, CoV2_5P prefusion-stabilized spike protein (SARS-CoV-2, UniProt P0DTC2 14-1208)
# T3 construct: also called 5P trimer; wildtype 5P
# Experiment: ELISA, AUC ratio to wildtype C2691
row,Binder,binding result
1,B3,binds
2,B5,binds
3,B6,binds
